How the values were obtained:
[1] = target: T1, GST-Rlp24C fragment (C-terminal fragment of the substrate protein Rlp24) (yeast, UniProt Q07915 147-199); assay: SPR; Biacore X100; 200 RU GST-Rlp24C amine-coupled on a CM5 chip, GST alone in the reference cell; 2 µM Drg1 with 1 mM ATPγS injected with or without 200 µg/ml diazaborine; 120 s association, 180 s dissociation; 20 mM HEPES-KOH, 150 mM KOAc, 5 mM Mg(OAc)2, 0.1% Tween-20, 1 mM DTT, pH 6.8; half-life from one-phase exponential decay; conditions: both partners purified
T1 construct: Rlp24, shuttling ribosome maturation factor of yeast, C-terminal fragment Rlp24C; The GST fusion was immobilised in SPR; also called Rlp24C-domain; source: purified
T1 sequence (looked up): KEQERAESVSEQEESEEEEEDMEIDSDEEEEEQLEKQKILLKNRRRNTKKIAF

[2] = target: the molecule itself; assay: cryo-EM structure; single-particle cryo-EM of full-length wild-type Drg1, 1.75 mg/ml, with 2 mM ATPγS and 200 µg/ml (740 µM) thieno-diazaborine 2b18; 20 mM HEPES-KOH, 150 mM KOAc, 5 mM Mg(OAc)2, 0.005% Tween-20, 1 mM DTT, pH 7.6; no symmetry imposed

B1: Drg1 (AAA-ATPase), full-length wild type (enzyme, yeast, UniProt P32794 1-780, looked up)
chain: MAPKSSSSGSKKKSSASSNSADAKASKFKLPAEFITRPHPSKDHGKETCTAYIHPNVLSSLEINPGSFCTVGKIGENGILVIARAGDEEVHPVNVITLSTTIRSVGNLILGDRLELKKAQVQPPYATKVTVGSLQGYNILECMEEKVIQKLLDDSGVIMPGMIFQNLKTKAGDESIDVVITDASDDSLPDVSQLDLNMDDMYGGLDNLFYLSPPFIFRKGSTHITFSKETQANRKYNLPEPLSYAAVGGLDKEIESLKSAIEIPLHQPTLFSSFGVSPPRGILLHGPPGTGKTMLLRVVANTSNAHVLTINGPSIVSKYLGETEAALRDIFNEARKYQPSIIFIDEIDSIAPNRANDDSGEVESRVVATLLTLMDGMGAAGKVVVIAATNRPNSVDPALRRPGRFDQEVEIGIPDVDARFDILTKQFSRMSSDRHVLDSEAIKYIASKTHGYVGADLTALCRESVMKTIQRGLGTDANIDKFSLKVTLKDVESAMVDIRPSAMREIFLEMPKVYWSDIGGQEELKTKMKEMIQLPLEASETFARLGISAPKGVLLYGPPGCSKTLTAKALATESGINFLAVKGPEIFNKYVGESERAIREIFRKARSAAPSIIFFDEIDALSPDRDGSSTSAANHVLTSLLNEIDGVEELKGVVIVAATNRPDEIDAALLRPGRLDRHIYVGPPDVNARLEILKKCTKKFNTEESGVDLHELADRTEGYSGAEVVLLCQEAGLAAIMEDLDVAKVELRHFEKAFKGIARGITPEMLSYYEEFALRSGSSS
notes: Drg1, hexameric type II AAA-ATPase of yeast (N-domain, D1 and D2 AAA-domains), full-length wild type; the atomic model covers amino acids 239-780 of each of the six monomers; Hexamer in the presence of nucleotide (ATPγS); also called Drg1 wild type; wild-type Drg1; source: overexpressed in yeast as GST-Drg1, purified (GSH-agarose, eluted by Prescission protease cleavage from the GST-tag)
For B1, the “fold slower dissociation with diazaborine against without” value [1] was 2 fold and the “stoichiometry N” value [2] was 6.
